Measurements published in patent US20230095569A1 (ANTENGENE BIOLOGICS, published 2023).
Where a chain is given by its changes, count along the chain named.

B1: Ab25 (antibody, V domains shown)
VH: EAQLQQSGPELVKPGASVKIFCKASGYTFTDYYINWVKQSHGKSLEWIGDINPNNGGTTYNQKFKGKATLTVDKSSSTASMELRRLTSEDSSVYYCARRDAMDYWGQGTSVTVSS
VL: DIVMTQSQKFMSTTVGDRVSITCTASQNVGPAVAWYQQKPGQSPKLLIYSASRRFTGVPDRFTGSGSGTVFTLTINNVQSEDLADYFCQQYISYPLTFGAGTKLELK
notes: mouse monoclonal (hybridoma)
B2: Ab17 (antibody, V domains shown)
VH: QVQLKESGPGLVAPSQSLSITCTVSGFSLTSYAISWVRQPPGKGLEWLGEIWTGGGTNYNSALKSRLSISKDNSKSQVFLKMNSLQTDDTARYYCGRLSYGNSLDYWGQGTTLTVSS
VL: DIVMTQSPSSLTVTAGEKVTMSCKSSQSLLNSGNQKNYLTWYQQKPGQPPKLLIYWASTRESGVPDRFTGSGSGTDFTLTVSSVQAEDLAVYYCQNNFIYPLTFGPGTKLELK
notes: mouse monoclonal (hybridoma)
B3: Ab11 (antibody, V domains shown)
VH: EVMLVESGGDLVKPGGSLKLSCAASGFTFSRYTMSWVRQTPEKRLEWVATVSVGSGNTYYLDSVKGRFTISRDNAKNTLFLQMNSLRSEDTALYYCTRLGQTQRNAVDYWGQGTSVTVSS
VL: DIVMTQSPSFLSVSAGEKVTMSCKSSQSLFNGGNQKNYLAWYQQKPGQPPKLLIYGASTRDSGVPDRFTGSGSGTDFTLTISNVQAEDLAIYFCQNDHSFPLTFGAGTKLELK
notes: mouse monoclonal (hybridoma)
B4: Ab19 (antibody, V domains shown)
VH: B3 VH with T28S, N84S, T97A, L99M
VL: DIVMTQSPSSLSVSAGEKVTMSCKSSQSLFNSGNQKNYLAWYQQKPGQPPKLLIYGASTRESGVPDRFTGSGSGTDFTLTISNVQAEDLAVYLCQNDHSFPLTFGAGTKLEL
notes: mouse monoclonal (hybridoma)
B5: Ab24 (antibody, V domains shown)
VH: EVKLVESGGGLVKPGGSLKLSCAGSGFTFSSYTMSWVRQTPEKRLEWVATITIGVNIYYLDSVKGRFTISRDNAKNTLYLQMNSLRSEDTALYYCTRLGQTQRNAMDYWGQGTSVTVSS
VL: B4 VL with S9T, S22T, Q44E, N83S, L93Y, D97V, S99F, F100Y, L102F
notes: mouse monoclonal (hybridoma)
B6: Ab07 (antibody, V domains shown)
VH: EVQLQQSGPELVKPGASVKISCKASGYSFTDYFMNWVKQSHGKGLEWIGRINPYNGDTFYNQKFKGKATLTVDKSSSTAHMELLSLTSEDFAVYYCALYDGYWGAFVYWGQGTLVTVSA
VL: DIQMTQSPASLSVFVGETVTITCRASENIYSNLAWYQQKQGKSPQLLVYAATNLADGVPSRFSGSGSGTQYSLKINSLQSEDFGSYYCQHFWGTPLTFGAGTKLELK
notes: mouse monoclonal (hybridoma)
B7: Ab12 (antibody, V domains shown)
VH: EVMLVESGGGLVKPGGSLKLSCAASGFTFSSYTMSWVRQTPEKRLEWVATIIGGYGNTYYADSVKGRFTISRDSAKNTLYLQMLSLRSEDTALYYCTRLGQTQRNAMDYWGQGTSVTVSS
VL: DILMTQSPSSLSVSAGEKVTMSCKSSQSLLNSGNQRNYLAWYQQKPGQPPKLLIYGASTRESGVPDRFTGSGSGTDFTLTISSVQAEDLAVYYCQNDYYYPLTFGAGTKLELK
notes: mouse monoclonal (hybridoma)
B8: Ab13 (antibody, V domains shown)
VH: B5 VH with K3R
VL: B7 VL with L3V, S9T, S22T, R36K, Q44E, D97N, Y98H, Y99F
notes: mouse monoclonal (hybridoma)
B9: Ab15 (antibody, V domains shown)
VH: EVMLVESGGDLVKPGGSLKLSCAASGFTFSTYTMSWVRQTPEKRLEWVATIVGGGGYTYYLDSVKGRFTISRDNAKNTLYLQMISLRSEDTALYYCARMGLTQRNALDYWGQGTSITVSS
VL: B7 VL with L3V, A15E, M21L, S22N, L30F, R36K, S73F, Y98H, Y99T, T108A
notes: mouse monoclonal (hybridoma); also called mAb Ab15
B10: Ab16 (antibody, V domains shown)
VH: EVMLVESGGGLVKPGGSLKLSCAASGFTFNSYTMSWVRQTPEKRLEWVATITVIGGNTYYLDSVKGRFTISIDNGKNTLYLQMSSLRSEDTALYYCARMGQTQRNAMDYWGQGTSVTVSS
VL: B7 VL with L3V, E17Q, S22R, R36K, P46L, T69S, S82T, Y99S, Y100F
notes: mouse monoclonal (hybridoma)
B11: Ab18 (antibody, V domains shown)
VH: QVQLKESGPGLVAPSQSLSITCTVSGFSLTTYGINWVRQPPGKGLEWLGVIWGDGSTNYHSALISRLSISKDNSKSQVFLKLNSLQTDDTATYYCVKSSYYGNAMDYWGQGTSVTVSS
VL: DIVMTQSPSSLTVTAGETVTMSCKSSQSLLNSGNQKNYLTWYQQKPGQPPKLLIYWASTRESGVPDRFTGSGSGTDFTLTISSVQAEDLAVYYCQNVYSYPFTFGSGTKLEI
notes: mouse monoclonal (hybridoma)
B12: Ab09 (antibody, V domains shown)
VH: EVQLQQSGPELVKPGTSVKMSCKASGYTFTDYNMHWVKLSHGKSLEWIGYINPNNGGTIYNQRFKGKATLTVNKSSRTAYMDLRSLTSEDSAVYYCARQGYYGNSMDYWGQGNSVTVSS
VL: DIVMTQSPSSLTVTPGERVTMSCKSSQSLLNGGNQRNYLTWYQQKPGQPPKLLIYWASTRESGVPDRFAGSGSGTDFTLTISRVQAEDLSFYYCQNSYFYPFTFGSGTKLDLR
notes: mouse monoclonal (hybridoma)
B13: Ab02 (antibody, V domains shown)
VH: QVQLKESGPGLVAPSQSLSITCTVSGFSLTSYAINWVRQPPGKGLEWLGVIWTGGGTNYNSALKSRLSINKDNSKSQVFLKMNSLQTDDTARYYCARFYDGYYSWFAYWGQGTLVTVSA
VL: DIVMTQSHKFMSTSVGDRVSITCKASQDVGTAVTWYQQKPGQSPKLLIYWASTRHTGVPDRFTGSGSGTDFTLTISNVQSEDLADYFCQQYSSYPFTFGSGTKLEIK
notes: mouse monoclonal (hybridoma)
B14: Ab05 (antibody, V domains shown)
VH: DVKLVESGEDLVKPGGSLKLSCAASGFTFSNYAMSWVRQTPEKRLEWVAYVSSGGDYIYYADTVKGRFIISRDNARNTLYLQMNSLRSEDTAMYYCARVYFGNSLDYWGQGTTLTVSS
VL: DIVMTQSPSSLTVTAGEKVTLSCKSSQSLLNGGNQKNYLTWYQQRPGQPPKLLIYWASTRESGVPDRFTGSGSGTDFTLIISSVQAEDLAVYYCQNDYYYPWTFGGGTKLEIK
notes: mouse monoclonal (hybridoma)
B15: Ab06 (antibody, V domains shown)
VH: EVQLVASGGGLVKPGGSLKLSCAASGITFRSYAMSWVRQTPEKRLEWVATITDGGSYIFYPDNVKGRFTISGDHAKNNLYLQMSHLKSEDTALYFCVRLYYGNSFAYWGQGTLVTVSA
VL: B2 VL with M21L, S22N, L30F, V81F, N97A, F98Y, L102F, P106S, L112I
notes: mouse monoclonal (hybridoma)
B16: Ab08 (antibody, V domains shown)
VH: QVQLQQPGAELVKPGASVKLSCKASGYTFTSYLLHWVKQRPGQGLEWIGMIHPNGGSTNYNEKFKTKATLTVDKSSSTAYMQLSSLTSEDSAVYYCAPVYFGNSFAYWGQGTLVTVSA
VL: B14 VL with L21M, G32S, R45K, I80T, W102F, G106S, I112K
notes: mouse monoclonal (hybridoma)
B17: Ab14 (antibody, V domains shown)
VH: B16 VH
VL: B14 VL with L21M, G32S, R45K, I80T, W102F, G106S, I112K
notes: mouse monoclonal (hybridoma)

Legend:
[1] = molecular target: T1, human Claudin18.1 (CLDN18.1) (human, UniProt P56856 1-261); experiment: FACS on CHOK1-18.1 cells;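 for FACS MFI: test antibody binding to the cells detected by flow cytometry using a fluorescent dye-labelled secondary antibody, read out as median fluorescence intensity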;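 for result: antibody binding to cells detected with a fluorescently labelled secondary antibody, read out as median fluorescence intensity (MFI) by flow cytometry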
T1 construct: whole, on cells; also called human Claudine18.1
Method: (§1) The specificity and cross-reactivity of these subclones were confirmed with FACs analysis. […] Fluorescent dye-conjugated secondary antibody was used to detect the binding of the primary antibody with the cells. Median fluorescence intensity (MFI) was measured by FACs analysis.

[2] = molecular target: T1, human Claudin18.1 (CLDN18.1); experiment: FACS on CHOK1-18.1 cells; remark: listed apart in the source;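 for FACS MFI: test antibody binding to the cells detected by flow cytometry using a fluorescent dye-labelled secondary antibody, read out as median fluorescence intensity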;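 for result: antibody binding to cells detected with a fluorescently labelled secondary antibody, read out as median fluorescence intensity (MFI) by flow cytometry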
Method: as §1

[3] = molecular target: T2, human Claudin18.2 (CLDN18.2) (human, UniProt P56856 1-261); experiment: FACS on CHOK1-18.2 cells;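 note: antibody binding to the cells detected with a fluorescently labelled secondary antibody and read out as median fluorescence intensity by flow cytometry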
T2 construct: the cell line is named under assay; also called human Claudine18.2; hClaudin18.2
Method: as §1

Binder | binding result [1] | FACS MFI [2] | FACS MFI [3]
B1 | no binding | 82.3 | 12600
B2 | no binding | 82.3 | 11500
B3 | no binding | 80.8 | 9800
B4 | no binding | 80.8 | 7340
B5 | no binding | 80.8 | 10100
B6 | no binding | 764 | 13700
B7 | no binding | 83.8 | 8820
B8 | no binding | 82.3 | 7460
B9 | no binding | 80.8 | 7390
B10 | no binding | 80.8 | 8170
B11 | no binding | 79.4 | 9910
B12 | no binding | 95.6 | 17100
B13 | no binding | 101 | 1380
B14 | no binding | 97 | 16000
B15 | no binding | 789 | 46100
B16 | no binding | 97 | 19400
B17 | no binding | 97 | 21400
